Assay results reported in patent US20200071406A1 (AGENCY FOR SCIENCE TECHNOLOGY AND RESEARCH, published 2020).

Molecular target: T1, soluble peptide MHC complex of p53125-134 and soluble HLA*A2402 (human)
T1 construct: Soluble complex used for phage selection, ELISA and SPR; also called p53-A24; p53-A24 monomers
Experiment: surface plasmon resonance

B1: P1C1_gl (antibody, V domains shown)
VH: QVQLQESGPGLVKPSQTLSLTCTVSGGSISSGGYYWSWIRQHPGKGLEWIGYIYYSGSTYYNPSLKSRVTISVDTSKNQFSLKLSSVTAADTAVYYCARENFGAFDHWGQGTLVTVSS
VL: QSVLTQPPSVSGAPGQRVTISCTGSSSNIGADYETHWYQQLPGTAPKLLIYGNTNRPSGVPDRFSGSKSGTSASLAITGLQAEDEADYYCQSYDSNLSAWVFGGGTKLTILS
notes: it induces ADCC, so it has an Fc; also called germline version of P1C1; original germline clone
Kd: 364 nM
